For assay [1], the target named is receptor tyrosine kinase orphan receptor 1 (ROR1) on Ntera-2 cells (human, UniProt Q01973 30-937). Put plainly: cell-based or functional assay.
In assay [2] the target is T1, human ROR1 Frizzled domain (hROR1-Fz) (human, UniProt Q01973 165-305).
T1 construct: Acro Biosystems, made in HEK293
In words: SPR Biacore, IgG on anti-Fc, ROR1-Fz analyte. The method in brief: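 Test antibodies captured on an anti-Fc surface (CM5 chip), then analyte bound for 180 s with 600 s dissociation at 25° C in HBS-EP+ buffer at 50 μL/min. Human ROR1 ECD, Frizzled or Kringle domain used as analyte; regeneration with 10 mM glycine pH 2.0.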
Background: SPR reads the build-up and loss of mass on a sensor chip optically.

The target of assay [3] is T2, human ROR1 (hROR1) (human, UniProt Q01973 30-937). Put plainly: cell-based or functional assay.
Assay [4] addresses T2, human ROR1 (hROR1). Put plainly: flow cytometry, HCT116-hROR1 cells. A general note: A flow cytometer gives signals particle by particle.

Where a chain is given by its changes, count along the chain named.

B1: Conjugate 28 (A05 x B04-F404-LP8 biparatopic) (bispecific antibody, human IgG1, kappa)
heavy 1: MEVQLVESGGGLVQPGGSLRLSCAASGFNIKEYHIHWVRQAPGKGLEWVGYISPNSGSTYYADSVKGRFTISADTSKNTAYLQMNSLRAEDTAVYYCARDHRRYVRPFDYWGQGTLVTVSSASTKGPSVFPLAPSSKSTSGGTAALGCLVKDYFPEPVTVSWNSGALTSGVHTFPAVLQSSGLYSLSSVVTVPSSSLGTQTYICNVNHKPSNTKVDKKVEPKSCDKTHTCPPCPAPELLGGPSVFLFPPKPKDTLMISRTPEVTCVVVDVSHEDPEVKFNWYVDGVEVHNAKTKPREEQYNSTYRVVSVLTVLHQDWLNGKEYKCKVSNKALPAPIEKTISKAKGQPREPQVYTLPPSREEMTKNQVSLWCLVKGFYPSDIAVEWESNGQPENNYKTTPPVLDSDGSFLYSKLTVDKSRWQQGNVFSCSVMHEALHNHYTQKSLSLSPGK
heavy 2: MEVQLVESGGGLVQPGGSLRLSCAASGFNIAGYAIHWVRQAPGKGLEWVGLITPTPGTSNYADSVKGRFTISVDTSKNTAYLQMNSLRAEDTAAYYCARDYRGVYLYSFYYDYWGQGTLVTVSSASTKGPSVFPLAPSSKSTSGGTAALGCLVKDYFPEPVTVSWNSGALTSGVHTFPAVLQSSGLYSLSSVVTVPSSSLGTQTYICNVNHKPSNTKVDKKVEPKSCDKTHTCPPCPAPELLGGPSVFLFPPKPKDTLMISRTPEVTCVVVDVSHEDPEVKFNWYVDGVEVHNAKTKPREEQYNSTYRVVSVLTVLHQDWLNGKEYKCKVSNKALPAPIEKTISKAKGQPREPQVYTLPPSREEMTKNQVSLSCAVKGFYPSDIAVEWESNGQPENNYKTTPPVLDSDGSFLVSKLTVDKSRWQQGNVFSCSVMHEALHNHYTQKSLSLSPGK
light: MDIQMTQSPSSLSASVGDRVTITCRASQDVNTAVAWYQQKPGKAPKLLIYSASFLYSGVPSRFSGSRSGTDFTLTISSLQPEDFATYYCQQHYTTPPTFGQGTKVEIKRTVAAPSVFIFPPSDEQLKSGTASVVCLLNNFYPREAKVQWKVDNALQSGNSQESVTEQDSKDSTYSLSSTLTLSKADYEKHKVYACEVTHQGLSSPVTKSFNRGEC
modifications: pAMF at F404 (EU), linked to LP8
In the case of B1, in assay [1], the “cell killing EC50, NTERA-2 cells” value stood at 0.028 nM and the “cell killing Span, NTERA-2 cells” value amounted to 88%.

B2: Conjugate 29 (A05 x C06-F404-LP8 biparatopic) (bispecific antibody, human IgG1, kappa)
heavy 1: B1 heavy 1
heavy 2: MEVQLVESGGGLVQPGGSLRLSCAASGFNITSYGIHWVRQAPGKGLEWVGWIAPNSGNTYYADSVKGRFTISADTSKNTAYLQMNSLRAEDTAVYYCARDIVSTYSYYYLMDYWGQGTLVTVSSASTKGPSVFPLAPSSKSTSGGTAALGCLVKDYFPEPVTVSWNSGALTSGVHTFPAVLQSSGLYSLSSVVTVPSSSLGTQTYICNVNHKPSNTKVDKKVEPKSCDKTHTCPPCPAPELLGGPSVFLFPPKPKDTLMISRTPEVTCVVVDVSHEDPEVKFNWYVDGVEVHNAKTKPREEQYNSTYRVVSVLTVLHQDWLNGKEYKCKVSNKALPAPIEKTISKAKGQPREPQVYTLPPSREEMTKNQVSLSCAVKGFYPSDIAVEWESNGQPENNYKTTPPVLDSDGSFLVSKLTVDKSRWQQGNVFSCSVMHEALHNHYTQKSLSLSPGK
light: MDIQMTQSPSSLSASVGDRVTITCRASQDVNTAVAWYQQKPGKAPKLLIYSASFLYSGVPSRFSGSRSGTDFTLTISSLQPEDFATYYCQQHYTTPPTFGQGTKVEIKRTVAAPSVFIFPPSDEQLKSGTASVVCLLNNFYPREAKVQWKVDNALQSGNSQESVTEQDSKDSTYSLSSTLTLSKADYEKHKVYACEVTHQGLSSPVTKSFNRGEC
modifications: pAMF at F404 (EU), linked to LP8
Consider B2, for which, in assay [1], the “cell killing EC50, NTERA-2 cells” value is 0.027 nM and the “cell killing Span, NTERA-2 cells” value was determined as 88%.

B3: Conjugate 24 (D04 x C01-F404-LP8 biparatopic) (bispecific antibody, human IgG1, kappa)
heavy 1: MEVQLVESGGGLVQPGGSLRLSCAASGFNISDYDIHWVRQAPGKGLEWVGGIDPADGSTDYADSVKGRFTISADTSKNTAYLQMNSLRAEDTAVYYCARDYGVYDYWGQGTLVTVSSASTKGPSVFPLAPSSKSTSGGTAALGCLVKDYFPEPVTVSWNSGALTSGVHTFPAVLQSSGLYSLSSVVTVPSSSLGTQTYICNVNHKPSNTKVDKKVEPKSCDKTHTCPPCPAPELLGGPSVFLFPPKPKDTLMISRTPEVTCVVVDVSHEDPEVKFNWYVDGVEVHNAKTKPREEQYNSTYRVVSVLTVLHQDWLNGKEYKCKVSNKALPAPIEKTISKAKGQPREPQVYTLPPSREEMTKNQVSLWCLVKGFYPSDIAVEWESNGQPENNYKTTPPVLDSDGSFLYSKLTVDKSRWQQGNVFSCSVMHEALHNHYTQKSLSLSPGK
heavy 2: B3 heavy 1 with S31N, D32G, G51Y, A55N, S58A, D60N, Y104F, W366S, L368A, Y406V
light: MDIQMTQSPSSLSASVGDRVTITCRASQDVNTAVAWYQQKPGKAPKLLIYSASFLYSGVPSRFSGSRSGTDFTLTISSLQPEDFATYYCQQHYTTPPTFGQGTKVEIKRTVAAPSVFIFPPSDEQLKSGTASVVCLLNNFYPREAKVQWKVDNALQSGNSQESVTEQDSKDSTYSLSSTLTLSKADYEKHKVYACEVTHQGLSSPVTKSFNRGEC
modifications: pAMF at F404 (EU), linked to LP8
Regarding B3, in assay [1], the “cell killing EC50, NTERA-2 cells” value worked out at 0.017 nM and the “cell killing Span, NTERA-2 cells” value is 85%.

B4: Conjugate 26 (D04 x A05-F404-LP8 biparatopic) (bispecific antibody, human IgG1, kappa)
heavy 1: B3 heavy 1
heavy 2: B1 heavy 1 with W370S, L372A, Y410V
light: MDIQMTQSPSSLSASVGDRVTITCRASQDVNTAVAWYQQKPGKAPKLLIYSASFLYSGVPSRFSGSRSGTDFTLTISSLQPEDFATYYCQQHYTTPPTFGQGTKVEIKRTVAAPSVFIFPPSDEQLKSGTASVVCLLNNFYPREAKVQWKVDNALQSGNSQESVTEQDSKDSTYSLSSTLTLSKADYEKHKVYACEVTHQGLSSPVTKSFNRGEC
modifications: pAMF at F404 (EU), linked to LP8
As for B4, in assay [1], the “cell killing EC50, NTERA-2 cells” value came out at 0.028 nM and the “cell killing Span, NTERA-2 cells” value stood at 84%.

B5: Conjugate 25 (D04 x B09-F404-LP8 biparatopic) (bispecific antibody, human IgG1, kappa)
heavy 1: B3 heavy 1
heavy 2: MEVQLVESGGGLVQPGGSLRLSCAASGFNINNSYIHWVRQAPGKGLEWVGIIDPNNGSTAYADSVKGRFTISADTSKNTAYLQMNSLRAEDTAVYYCARSRWYRVLWSYVLDYWGQGTLVTVSSASTKGPSVFPLAPSSKSTSGGTAALGCLVKDYFPEPVTVSWNSGALTSGVHTFPAVLQSSGLYSLSSVVTVPSSSLGTQTYICNVNHKPSNTKVDKKVEPKSCDKTHTCPPCPAPELLGGPSVFLFPPKPKDTLMISRTPEVTCVVVDVSHEDPEVKFNWYVDGVEVHNAKTKPREEQYNSTYRVVSVLTVLHQDWLNGKEYKCKVSNKALPAPIEKTISKAKGQPREPQVYTLPPSREEMTKNQVSLSCAVKGFYPSDIAVEWESNGQPENNYKTTPPVLDSDGSFLVSKLTVDKSRWQQGNVFSCSVMHEALHNHYTQKSLSLSPGK
light: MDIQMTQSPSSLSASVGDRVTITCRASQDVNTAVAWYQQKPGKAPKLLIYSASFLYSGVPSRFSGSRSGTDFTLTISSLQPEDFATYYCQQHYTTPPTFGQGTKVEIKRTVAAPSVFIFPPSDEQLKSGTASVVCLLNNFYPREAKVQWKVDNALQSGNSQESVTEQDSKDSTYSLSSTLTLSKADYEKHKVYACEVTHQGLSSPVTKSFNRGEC
modifications: pAMF at F404 (EU), linked to LP8
Turning to B5, in assay [1], the “cell killing EC50, NTERA-2 cells” value was 0.018 nM and the “cell killing Span, NTERA-2 cells” value turned out to be 87%.

B6: Conjugate 27 (D04 x B04-F404-LP8 biparatopic) (bispecific antibody, human IgG1, kappa)
heavy 1: B3 heavy 1
heavy 2: B1 heavy 2
light: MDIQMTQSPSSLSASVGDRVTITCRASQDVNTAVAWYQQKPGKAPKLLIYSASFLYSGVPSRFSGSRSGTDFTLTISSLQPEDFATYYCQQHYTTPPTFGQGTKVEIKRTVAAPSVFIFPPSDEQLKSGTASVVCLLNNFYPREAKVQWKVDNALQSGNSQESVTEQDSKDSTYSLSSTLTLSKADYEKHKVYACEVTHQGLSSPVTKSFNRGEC
modifications: pAMF at F404 (EU), linked to LP8
B6: in assay [1], the “cell killing EC50, NTERA-2 cells” value stood at 0.024 nM and the “cell killing Span, NTERA-2 cells” value worked out at 89%.

B7: SRP2193-D02 (antibody, IgG1, V domains shown)
VH: EVQLVESGGGLVQPGGSLRLSCAASGFNIKDYYIHWVRQAPGKGLEWVGAIDPESGSTVYADSVKGRFTISADTSKNTAYLQMNSLRAEDTAVYYCARSRWFRVLWSYVFDYWGQGTLVTVSS
VL: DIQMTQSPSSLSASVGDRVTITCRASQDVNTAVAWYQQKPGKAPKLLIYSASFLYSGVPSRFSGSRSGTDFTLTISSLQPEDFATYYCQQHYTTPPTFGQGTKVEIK
notes: His/FLAG-tagged IgG1, cell-free
Usually Kd stands for a measure of binding affinity in units of concentration. Lower therefore signals higher affinity. The term koff denotes the first-order rate constant of dissociation. Lower therefore signals a long-lived complex. The term kon denotes a measure of how fast the partners come together. In assay [2], B7 yielded a Kd of 6.94 nM, a koff of 0.00101 s⁻¹ and a kon of 146000 M⁻¹ s⁻¹. Moreover, in assay [3], the “Mino Nb-PBD, drug-conjugated 2° antibody Cell Killing EC50” value came out at 0.0038 nM and the “Mino Nb-PBD, drug-conjugated 2° antibody Cell Killing Span” value was 61%. Further, in assay [4], the “Bmax (MFI)” value amounted to 15500 MFI and the Kd amounted to 1.22 nM.

B8: SRP2193-D05 (antibody, IgG1, V domains shown)
VH: B7 VH with K30N, Y32H, E54N
VL: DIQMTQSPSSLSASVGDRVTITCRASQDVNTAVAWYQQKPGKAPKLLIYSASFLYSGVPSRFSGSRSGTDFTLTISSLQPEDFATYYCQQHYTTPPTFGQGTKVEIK
notes: His/FLAG-tagged IgG1, cell-free; also called Antibody 78
In assay [2], B8 returned a Kd of 2.89 nM, a koff of 0.000331 s⁻¹ and a kon of 114000 M⁻¹ s⁻¹. For the same molecule, in assay [3], the “Mino Nb-PBD, drug-conjugated 2° antibody Cell Killing EC50” value was 0.0042 nM and the “Mino Nb-PBD, drug-conjugated 2° antibody Cell Killing Span” value amounted to 59%. For the same molecule, in assay [4], the “Bmax (MFI)” value worked out at 15800 MFI and the Kd was determined as 1.64 nM.

These data come from US20240058465A1 (SUTRO BIOPHARMA, published 2024).
